Assay results from US20140287419A1, “Compositions Having Dicamba Decarboxylase Activity and Methods of Use” (priority 2013, published 2014).

Assays:
[1] = 14C assay with purified protein (14CO2 captured on Ca(OH)2 filter paper); format: biochemical; details: [14C]-carboxyl-labeled dicamba
[2] = Detection of 2,5-DCA product by toluene capture or head-space GC/MS; format: biochemical; details: purified protein, toluene capturing
Procedure: Alternatively, dicamba decarboxylase activity can be monitored by measuring decarboxylation products other than CO2 using product detection methods. The decarboxylation product of dicamba, 2,5-dichloro anisole or 2,5-DCA (FIG. 1C), is a volatile compound with a flash point of 21° C. To capture this volatile compound for detection, 140 ul of toluene solution is added on top of 1 ml reaction mixture to form a trapping layer in a 1.5 ml eppendorf tube. […] The reaction is kept still at room temperature overnight before being vortex mixed and centrifuged at 14,000 rpm for 15 minutes. The top toluene phase is carefully removed using a micropipette and transferred into a 12×32 mm polypropylene vial (Vial 11 mm) from MicroLiter Analytical Supplies, Inc. (catalog number 11-5300-100). The vial is sealed with Crimp seal (11 mm with FEP/Nat Rubber) from MicroLiter Analytical Supplies, Inc. (catalog number 11-0020A) using a E-Z Crimper™ 11 mm from Wheaton Inc. 1 ul of the toluene mixture is taken from the sealed vials and injected in splitless mode into a GC/MS system for sample analysis (Agilent GC/MS system with a 6890A GC, a 5973N MSD and a CTC CombiPAL auto-sampler or with a 7890A GC, a 5975C MSD and an Agilent GC Sampler 80 auto-sampler). The GC parameters are: Agilent DB-5MS column (30 m length, 0.25 mm diameter, 0.25 um film) or equivalent; The GC inlet temperature, 250° C.; Carry gas, helium in constant flow mode (1.2 mL/min); The GC oven temperature program, initial temperature at 70° C. for 1 min, ramping to 200° C. at 15° C./min, and then ramping to 250° C. at 30° C./min. MS data acquisition is done in SIM (selected ion monitoring) mode, monitoring the positive ion at M/Z 176 for the molecular ion of […]. The solvent delay for MS acquisition is set at 4 min. Another method for detection of 2,5-DCA is a head-space GC/MS method. Briefly, reaction mixtures in 500 ul reaction volume are prepared in 1.5 ml×32 mm glass vials (Microliter Analytical Supplies, Cat#11-1200) for head space analysis. Glass vials are sealed with magnetic cap from MicroLiter Analytical Supplies, Inc. (catalog number 11-0030AT) using a E-Z Crimper™ 11 mm from Wheaton Industries Inc. The reaction is carried out at room temperature for various amount of time and stopped by heating at 95° C. for 5 min. The reaction vial is transferred to a agitator for incubation at 80° C. for 5 min at 500 rpm. With a syringe preheated at 80° C., 1000 uL of head space is injected with sample fill speed at 100 uL/sec. GC/MS parameters for headspace analysis are the same as for liquid sample analysis.

[3] = Detection of 4-chloro-3-methoxy phenol product by LC-MS/MS; format: biochemical; details: purified protein
[4] = Detection of 2,5-DCP product by GC/MS; format: biochemical; details: purified protein
[5] = Dicamba decarboxylation activity of computationally designed protein variants; details: for Dicamba Decarboxylase Activity: native protein or designed variant versus parent
[6] = 14C assay with IPTG-induced recombinant E. coli cells (14CO2 capture from [14C]-carboxyl-labeled dicamba)
[7] = Enzyme kinetic characterization (kcat, KM, kcat/KM) by PEPC/MDH coupled enzyme assay or GC/MS measurement of 2,5-DCP; details: purified protein, substrate dicamba

Molecule | CO2 product [1] | 2,5-DCA product [2] | 4-chloro-3-methoxy phenol product [3] | 2,5-DCP product [4] | Dicamba Decarboxylase Activity [5] | decarboxylation activity of dicamba ([6]; E. coli cell assay, 108 sequences tested) | Dicamba Decarboxylation activity ([5]; Table 5, designed variants with improved activity) | Percent Activity Improvement Over Parent (%) ([5]; parent SEQ ID NO:1 or SEQ ID NO:41 listed as 100) | Enzymatic Detection level ([6]; dicamba decarboxylation activity of the protein of the given SEQ ID NO) | Km [7] [mM] | kcat [7] [s⁻¹]
SEQ ID NO:1: 2,6-Dihydroxybenzoate Decarboxylase, Rhizobium sp. MTP-10005 (protein, listed as Rhizobium sp.) MAQGKVALEEHFAIPETLQDSAGFVPGDYWKELQHRLLDIQDTRLKLMDAHGIETMILSLNAPAVQAIPDRRKAIEIARRANDVLAEECAKRPDRFLAFAALPLQDPDAATEELQRCVNDLGFVGALVNGFSQEGDGQTPLYYDLPQYRPFWGEVEKLDVPFYLHPRNPLPQDSRIYDGHPWLLGPTWAFAQETAVHALRLMASGLFDEHPRLNIILGHMGEGLPYMMWRIDHRNAWVKLPPRYPAKRRFMDYFNENFHITTSGNFRTQTLIDAILEIGADRILFSTDWPFENIDHASDWFNATSIAEADRVKIGRTNARRLFKLDGA | detected | detected | detected | detected | native dicamba decarboxylase activity | showed decarboxylation activity of dicamba |  |  |  |  | 
109 (protein, Dicamba decarboxylase variant clone DC.4.032) MAQGKVALEEHFAIPETLQDSAGFVPGDYWKELQHRLLDIQDTRLKLMDAHGIETMILSLNAPAVQAIPDRRKAIEIARRANDVLAEECAKRPDRFLAFAALPLQDPDAATEELQRCVNDLGFVGALVNGFSQEGDGQTPLYYDLPQYRPFWGEVEKLDVPFYLHPRNPLPQDSRIYDGHPWLLGPTWAFAQETAVHALRLMASGLFDEHPRLNIILGHMGEGLPYMMWRIDHRVAWVKLPPRYPAKRRFMDYFNENFHITTSGNFRTQTLIDAILEIGADRILFSTDWPFENIDHASDWFNATSIAEADRVKIGRTNARRLFKLDGA |  |  |  |  |  |  | Yes | 234 | High | 4.66 | 0.000533
SEQ ID NO:121: Design variant of SEQ ID NO: 100 (protein, Dicamba decarboxylase variant clone DC.12.014) MAIIDCHGHYTTTPKGVEDYRNAQKAAVAKDPSFKGEKGQVVVSDDEIRESIENNQLKMQRERGTDLTIFSPRWDAGGHHIGNEYTSQFWTEHQNDLIRRVCDLFPKNFAPVAQLPQSPGVDPAKSVPEIVRTVEQMGFIGINLNPDPSGGYWKDTSLADRAFYPIYEKMVEYDIPAMIHPRLACNACFHTGLSVGLGADTTGFQQLIMSDVFKDFPSLKIIIPHGGGAVPYHWGRFRGLMQDQGYAPLEESALKNIYFDTCVYHQRGIDLLLDIVPTQNILFASEMIGAVRGIDPETGHNFDDTKRYIDNNTALNAEEKAMIFEGNARRVFSRLKTD | not detected | detected | not detected | not detected | have dicamba decarboxylase activity |  |  |  |  |  | 
SEQ ID NO:122: Design variant of SEQ ID NO: 100 (protein, Dicamba decarboxylase variant clone DC.12.103) MAIIDCHGHYTTTPKGVEDYRNAQKAAVAKDPSFKGEKGQVVVSDDEIRESIENNQLKMQRERGTDLTIFSPRSTAGGHHIGNEYTSQFWTEHQNDLIRRVCDLFPKNFAPVAQLPQSPGVDPAKSVPEIVRTVEQMGFIGINLNPDPSGGYWKDTSLADRAFYPIYEKMVEYDIPAMIHPRNACNDCFHTTGSHALGADTTGFQQLIMSDVFKDFPSLKIIIPHGGGAVPYHWGRFRGLMQDQGYAPLEESALKNIYFDTCVYHQRGIDLLLDIVPTQNILFASDMIGAVRGIDPETGHNFDDTKRYIDNNTALNAEEKAMIFEGNARRVFSRLKTD | not detected | detected | not detected | not detected | have dicamba decarboxylase activity |  |  |  |  |  | 
